# Laboratory results from patent publication US20240309073A1 (SERUM INSTITUTE OF INDIA PRIVATE, published 2024).
# Columns and labels:
# Experiment in all cases: cell-based or functional assay
# [1] = molecular target: T1, Dengue virus serotype DV3 (Dengue virus serotype 3 (DV3), UniProt Q6YMS4 281-773)
# [2] = molecular target: T2, Dengue virus serotype DV2 (Dengue virus serotype 2 (DV2), UniProt P29990 281-775)
# [3] = molecular target: T3, Dengue virus serotype DV4 (Dengue virus serotype 4 (DV4), UniProt P09866 280-774)
# T3 sequence (P09866 280-774 limits assumed): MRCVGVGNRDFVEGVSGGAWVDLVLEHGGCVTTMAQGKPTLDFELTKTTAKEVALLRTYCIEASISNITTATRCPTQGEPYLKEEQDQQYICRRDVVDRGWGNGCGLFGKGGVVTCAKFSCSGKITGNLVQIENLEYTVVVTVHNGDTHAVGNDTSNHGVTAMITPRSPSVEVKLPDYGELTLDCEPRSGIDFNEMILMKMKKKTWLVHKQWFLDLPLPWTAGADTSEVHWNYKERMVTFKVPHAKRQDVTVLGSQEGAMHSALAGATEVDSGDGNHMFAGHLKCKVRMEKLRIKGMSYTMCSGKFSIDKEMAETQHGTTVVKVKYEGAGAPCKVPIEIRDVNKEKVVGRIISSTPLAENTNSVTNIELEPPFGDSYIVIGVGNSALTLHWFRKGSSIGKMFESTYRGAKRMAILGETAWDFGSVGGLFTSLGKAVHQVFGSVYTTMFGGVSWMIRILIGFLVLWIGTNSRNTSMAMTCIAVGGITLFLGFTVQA
# [4] = molecular target: T2, Dengue virus serotype DV2; remark: listed apart in the source
# [5] = molecular target: T1, Dengue virus serotype DV3; remark: listed apart in the source
# [6] = molecular target: T2, Dengue virus serotype DV2; remark: listed apart in the source
# [7] = molecular target: T3, Dengue virus serotype DV4; remark: listed apart in the source
binder,measurement,setting,value
"Dengue (VIS513) Monoclonal antibody (antibody, human IgG1, kappa, V domains shown) VH: QVQLVQSGAEVKKPGASVKVSCKAGFNIKDVYMSWVRQAPEQGLEWMGRIDPENGDTKYDPKLQGRVTMTADTSTNTAYMELRSLRSDDTAVYYCARGWEGFAYWGQGTLVTVSS VL: DIVMTQSPASLAVSLGERATISCRASENVDKYGNSFMHWYQQKPGQPPKLLIYRASELQWGVPDRFSGSGSGTDFTLTISSLQAEDVAVYYCQRSNEVPWTFGQGTKLEIKR","EC50 (ng/ml) by PRNT assay; Batch 1, stored at 2-8° C., 0 day",[1],14.4 ng/mL
same,"EC50 (ng/ml) by PRNT assay; Batch 1, stored at 2-8° C., 3 months",[1],14.7 ng/mL
same,"EC50 (ng/ml) by PRNT assay; Batch 1, stored at 2-8° C., 6 months",[1],5.58 ng/mL
same,"EC50 (ng/ml) by PRNT assay; Batch 1, stored at 2-8° C., 9 months",[1],4.57 ng/mL
same,"EC50 (ng/ml) by PRNT assay; Batch 2, stored at 2-8° C., 0 day",[1],13.2 ng/mL
same,"EC50 (ng/ml) by PRNT assay; Batch 2, stored at 2-8° C., 6 months",[1],6.53 ng/mL
same,"EC50 (ng/ml) by PRNT assay; Batch 2, stored at 2-8° C., 9 months",[1],7.05 ng/mL
same,"EC50 (ng/ml) by PRNT assay; Batch 1, stored at 2-8° C., 0 day",[2],5.9 ng/mL
same,"EC50 (ng/ml) by PRNT assay; Batch 1, stored at 2-8° C., 3 months",[2],8.03 ng/mL
same,"EC50 (ng/ml) by PRNT assay; Batch 1, stored at 2-8° C., 6 months",[2],3.58 ng/mL
same,"EC50 (ng/ml) by PRNT assay; Batch 1, stored at 2-8° C., 9 months",[2],3.31 ng/mL
same,"EC50 (ng/ml) by PRNT assay; Batch 2, stored at 2-8° C., 0 day",[2],3.26 ng/mL
same,"EC50 (ng/ml) by PRNT assay; Batch 2, stored at 2-8° C., 3 months",[2],5.69 ng/mL
same,"EC50 (ng/ml) by PRNT assay; Batch 2, stored at 2-8° C., 6 months",[2],4.15 ng/mL
same,"EC50 (ng/ml) by PRNT assay; Batch 2, stored at 2-8° C., 9 months",[2],2.87 ng/mL
same,"EC50 (ng/ml) by PRNT assay; Batch 1, stored at 2-8° C., 0 day",[3],30.3 ng/mL
same,"EC50 (ng/ml) by PRNT assay; Batch 1, stored at 2-8° C., 3 months",[3],50.8 ng/mL
same,"EC50 (ng/ml) by PRNT assay; Batch 1, stored at 2-8° C., 6 months",[3],24 ng/mL
same,"EC50 (ng/ml) by PRNT assay; Batch 1, stored at 2-8° C., 9 months",[3],23.4 ng/mL
same,"EC50 (ng/ml) by PRNT assay; Batch 2, stored at 2-8° C., 0 day",[3],22.5 ng/mL
same,"EC50 (ng/ml) by PRNT assay; Batch 2, stored at 2-8° C., 3 months",[3],22.4 ng/mL
same,"EC50 (ng/ml) by PRNT assay; Batch 2, stored at 2-8° C., 6 months",[3],16.6 ng/mL
same,"EC50 (ng/ml) by PRNT assay; Batch 2, stored at 2-8° C., 9 months",[3],19.6 ng/mL
same,"EC50 (ng/ml) by PRNT assay; Batch 1, 40° C. study, Control, 0 day",[4],6.66 ng/mL
same,"EC50 (ng/ml) by PRNT assay; Batch 1, 40° C. study, Control, 7 days",[4],6.37 ng/mL
same,"EC50 (ng/ml) by PRNT assay; Batch 1, 40° C. study, Control, 14 days",[4],6.18 ng/mL
same,"EC50 (ng/ml) by PRNT assay; Batch 1, stored at 40° C., Test, 7 days",[4],26.9 ng/mL
same,"EC50 (ng/ml) by PRNT assay; Batch 1, stored at 40° C., Test, 14 days",[4],36.1 ng/mL
same,"EC50 (ng/ml) by PRNT assay; Batch 1, stored at 25° C., 0 day",[5],14.4 ng/mL
same,"EC50 (ng/ml) by PRNT assay; Batch 1, stored at 25° C., 30 days",[5],9.63 ng/mL
same,"EC50 (ng/ml) by PRNT assay; Batch 2, stored at 25° C., 0 day",[5],13.2 ng/mL
same,"EC50 (ng/ml) by PRNT assay; Batch 2, stored at 25° C., 30 days",[5],9.25 ng/mL
same,"EC50 (ng/ml) by PRNT assay; Batch 1, stored at 25° C., 0 day",[6],5.9 ng/mL
same,"EC50 (ng/ml) by PRNT assay; Batch 1, stored at 25° C., 30 days",[6],5.6 ng/mL
same,"EC50 (ng/ml) by PRNT assay; Batch 2, stored at 25° C., 0 day",[6],3.26 ng/mL
same,"EC50 (ng/ml) by PRNT assay; Batch 2, stored at 25° C., 30 days",[6],5.51 ng/mL
same,"EC50 (ng/ml) by PRNT assay; Batch 1, stored at 25° C., 0 day",[7],30.3 ng/mL
same,"EC50 (ng/ml) by PRNT assay; Batch 1, stored at 25° C., 30 days",[7],35.3 ng/mL
same,"EC50 (ng/ml) by PRNT assay; Batch 2, stored at 25° C., 0 day",[7],22.5 ng/mL
same,"EC50 (ng/ml) by PRNT assay; Batch 2, stored at 25° C., 30 days",[7],30.7 ng/mL
